No end group written: not given here.
How the values were obtained:
HER2抗原合成多肽 (SEQ ID No.1) = target: T1, HER2抗原合成多肽 (SEQ ID No.1) (not fully specified; also: coupled to KLH or OVA for immunisation); experiment: ELISA screening of hybridoma clones on the HER2 antigen (SEQ ID NO.1)
T1 construct: It was coupled to KLH or OVA for immunisation; also called HER2的多肽
T1 peptide: PTAENPEYLGLDVPV

HER2蛋白 (表达HER2蛋白的细胞) [1] = target: HER2蛋白 (表达HER2蛋白的细胞) (UniProt P04626); experiment: flow cytometry on cells expressing HER2, against the blank control without antibody
HER2蛋白 (表达HER2蛋白的细胞) [2] = target: HER2蛋白 (表达HER2蛋白的细胞) (UniProt P04626); experiment: flow cytometry on 1×10^6 cells expressing HER2, 0.5 μg antibody, Alexa Fluor 488 goat anti-rabbit secondary

- binding result (HER2抗原合成多肽 (SEQ ID No.1)): binds
- fold MFI against the blank control (HER2蛋白 (表达HER2蛋白的细胞) [1]): 251 倍
- MFI (HER2蛋白 (表达HER2蛋白的细胞) [2]): 2480
B1: 246G0D3抗HER2重组兔单克隆抗体 (antibody, V domains shown)
VH: QSVEESGGRLVTPGTPLTLTCTVSGFSLSSYAMSWVRQAPGKGLEYIGIIRSSGSTYYASWAKGRFTISKTSTTVDLKLTSPTSEDTATYFCCRGSPGSGSGYSVLWGQGTLVTVSS
VL: AAVLTQTPSPVSAAVGGTVSISCQSSKSVYNNNCLAWYQQKPGQPPKLLIYGASTLASGVPSRFKGSGSGTQFTLTISDVQCDDAATYYCAGGYTDDSDDGFGGGTEVVVK
notes: also called 246G0D3抗体; 246G0D3抗HER2单克隆抗体
